Experimental data as given in patent publication US20100260765A1 (AstraZeneca / MedImmune, published 2010).

Key:
soluble KDR Ig4-7 domain [1] = target: T1, soluble KDR Ig4-7 domain (human, UniProt P35968 328-764); experiment: ELISA, KDR Ig4-7 coat (1:1 diln.), antibody 0.1 ug/mL
T1 construct: domain: Ig4-7 domain; also called b-KDRIg4-7-myc-his; Ig4-7 domain of KDR; not shown: myc-his tag of the pSecTag construct
Procedure: (§1) The cross-reactivity of purified antibodies was tested against KDR mouse ortholog KDR mouse ortholog (mouse VEGFR2, or Flk-1) and human VEGFR1 (Flt-1). The ability of the antibodies to bind soluble KDR Ig4-7 domain and to the entire KDR extracellular domain (ECD) was also measured.
(§2) Cross-reactivity experiments were carried out and measured using an ELISA based assay as described in Example 6. […] Antibody controls included IgG1 and IgG4 (Sigma-Aldrich, Cat. #15154 and #14639, respectively).

[2] = target: T2, whole KDR-ECD (Cat. # 676490, Calbiochem) (human, UniProt P35968 20-764); experiment: ELISA, KDR-ECD coat 5 ug/mL, antibody 1 ug/mL
T2 construct: extracellular domain; Bought soluble protein; also called soluble KDR; VEGF Receptor 2 D1-7
Procedure: as §1, §2

human KDR [3] = target: T3, human KDR (human, UniProt P35968 20-1356); experiment: cell-based or functional assay
human KDR [4] = target: T3, human KDR; experiment: FACS competition on 293T/human KDR transfectants; antibody 5 ug/mL first, then competitor VEGF165 50 ng/mL; inhibition of VEGF binding
Procedure: (§3) Transfected cells were then seeded at 50,000 cells/well and incubated with 5 μg/mL of candidate antibody for one hour at 4° C. […] After washing, the cells were incubated with Cy5-conjugated rabbit anti-goat antibody plus 7AAD for 15 minutes at 4° C.

cynomolgus KDR = target: T4, cynomolgus KDR (cynomolgus monkey, UniProt A0A2K5VE63 20-1356); experiment: FACS on Cyno KDR/293T transfectants, antibody 5 ug/mL
T4 construct: whole, on cells; also called Cyno KDR
Procedure: The binding of purified antibodies to cell-bound cynomolgus KDR (with parental cells as negative control) was tested by FACS analysis in this assay.
Cynomolgus KDR was cloned in 3 pieces. One piece was PCR amplified from cynomolgus lung cDNA, and the remaining two pieces were PCR amplified from cynomolgus kidney cDNA. The three PCR products were inserted into pCR3.1 Bid vector. […] Transfected cells were seeded at 50,000 cells/well and incubated with 5 μg/mL of candidate antibody for one hour at 4° C. The cells were then washed and incubated with secondary antibody (Cy5-conjugated goat anti-human antibody, or Cy5-conjugated rabbit anti-goat antibody, plus 7-Amino-Actinomycin (7AAD)) for 15 minutes at 4° C. Binding between cynomolgus KDR and purified antibody was detected by FACS analysis.

human KDR [5] = target: T3, human KDR; experiment: cell-based or functional assay; remark: listed apart in the source
[6] = target: T2, whole KDR-ECD (Cat. # 676490, …); experiment: ELISA, KDR-ECD coat 5 ug/mL, antibody 0.01 ug/mL
Procedure: as §1, §2

human KDR [7] = target: T3, human KDR; experiment: FACS titration of purified antibody on HUVEC cells (FACS Kd)
Procedure: The binding affinities of the purified antibodies for endogenously-expressed KDR in HUVEC cells was measured. HUVEC cells were seeded at 150,000 cells/well and incubated with titrations of purified antibody for 4 hours at 4° C. The cells were then washed and incubated with goat anti-human IgG-Fc-Cy5+5 μg/mL 7-Amino-Actinomycin (7AAD) for 30 minutes at 4° C. Bound KDR was detected using FACS analysis.

soluble KDR Ig4-7 domain [8] = target: T1, soluble KDR Ig4-7 domain; experiment: ELISA, KDR Ig4-7 coat (1:1 diln.), antibody 0.01 ug/mL
Procedure: as §1, §2

[9] = target: T2, whole KDR-ECD (Cat. # 676490, …); experiment: ELISA, KDR-ECD coat 5 ug/mL, antibody 0.1 ug/mL
Procedure: as §1, §2

human KDR [10] = target: T3, human KDR; experiment: cell-based or functional assay; remark: listed apart in the source
soluble KDR Ig4-7 domain [11] = target: T1, soluble KDR Ig4-7 domain; experiment: ELISA, KDR Ig4-7 coat (1:1 diln.), antibody 1 ug/mL
Procedure: as §1, §2

human KDR [12] = target: T3, human KDR; experiment: FACS competition on 293T/human KDR transfectants; antibody 5 ug/mL first, then competitor VEGF165 50 ng/mL; bound VEGF165 detected
Procedure: as §3

[13] = target: T5, mouse KDR (Flk-1)/Fc (Cat. #443-KD/CF, R&D Systems, Inc.) (mouse, UniProt P35918 20-762); experiment: ELISA, Flk-1 coat 5 ug/mL, antibody 0.1 ug/mL
T5 construct: Bought reagent; also called mouse VEGFR2; KDR mouse ortholog; not shown: Fc of the bought fusion protein
Procedure: as §1, §2

[14] = target: T5, mouse KDR (Flk-1)/Fc (Cat. #443-KD/CF, …); experiment: ELISA, Flk-1 coat 5 ug/mL, antibody 0.01 ug/mL
Procedure: as §1, §2

[15] = target: T5, mouse KDR (Flk-1)/Fc (Cat. #443-KD/CF, …); experiment: ELISA, Flk-1 coat 5 ug/mL, antibody 1 ug/mL
Procedure: as §1, §2

T5 sequence (P35918 20-762 limits assumed): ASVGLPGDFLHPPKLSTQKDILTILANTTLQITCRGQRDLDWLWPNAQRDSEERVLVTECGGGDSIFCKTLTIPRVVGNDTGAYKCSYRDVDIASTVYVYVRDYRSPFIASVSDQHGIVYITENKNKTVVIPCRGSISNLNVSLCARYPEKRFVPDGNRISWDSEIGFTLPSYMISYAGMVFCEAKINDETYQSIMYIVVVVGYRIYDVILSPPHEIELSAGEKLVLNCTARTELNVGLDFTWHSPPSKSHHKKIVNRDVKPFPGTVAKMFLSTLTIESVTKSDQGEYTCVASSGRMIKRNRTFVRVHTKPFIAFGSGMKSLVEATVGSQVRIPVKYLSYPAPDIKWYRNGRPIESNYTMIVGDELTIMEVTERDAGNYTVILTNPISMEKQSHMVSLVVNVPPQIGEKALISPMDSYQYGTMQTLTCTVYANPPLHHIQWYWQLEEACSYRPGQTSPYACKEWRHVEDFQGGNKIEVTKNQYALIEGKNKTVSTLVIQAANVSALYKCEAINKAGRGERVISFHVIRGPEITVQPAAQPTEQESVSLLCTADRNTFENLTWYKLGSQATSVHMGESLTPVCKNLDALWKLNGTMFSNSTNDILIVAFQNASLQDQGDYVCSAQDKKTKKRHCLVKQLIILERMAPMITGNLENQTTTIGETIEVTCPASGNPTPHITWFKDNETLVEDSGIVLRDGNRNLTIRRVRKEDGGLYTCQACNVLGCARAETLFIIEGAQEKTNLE
T3 sequence (P35968 20-1356): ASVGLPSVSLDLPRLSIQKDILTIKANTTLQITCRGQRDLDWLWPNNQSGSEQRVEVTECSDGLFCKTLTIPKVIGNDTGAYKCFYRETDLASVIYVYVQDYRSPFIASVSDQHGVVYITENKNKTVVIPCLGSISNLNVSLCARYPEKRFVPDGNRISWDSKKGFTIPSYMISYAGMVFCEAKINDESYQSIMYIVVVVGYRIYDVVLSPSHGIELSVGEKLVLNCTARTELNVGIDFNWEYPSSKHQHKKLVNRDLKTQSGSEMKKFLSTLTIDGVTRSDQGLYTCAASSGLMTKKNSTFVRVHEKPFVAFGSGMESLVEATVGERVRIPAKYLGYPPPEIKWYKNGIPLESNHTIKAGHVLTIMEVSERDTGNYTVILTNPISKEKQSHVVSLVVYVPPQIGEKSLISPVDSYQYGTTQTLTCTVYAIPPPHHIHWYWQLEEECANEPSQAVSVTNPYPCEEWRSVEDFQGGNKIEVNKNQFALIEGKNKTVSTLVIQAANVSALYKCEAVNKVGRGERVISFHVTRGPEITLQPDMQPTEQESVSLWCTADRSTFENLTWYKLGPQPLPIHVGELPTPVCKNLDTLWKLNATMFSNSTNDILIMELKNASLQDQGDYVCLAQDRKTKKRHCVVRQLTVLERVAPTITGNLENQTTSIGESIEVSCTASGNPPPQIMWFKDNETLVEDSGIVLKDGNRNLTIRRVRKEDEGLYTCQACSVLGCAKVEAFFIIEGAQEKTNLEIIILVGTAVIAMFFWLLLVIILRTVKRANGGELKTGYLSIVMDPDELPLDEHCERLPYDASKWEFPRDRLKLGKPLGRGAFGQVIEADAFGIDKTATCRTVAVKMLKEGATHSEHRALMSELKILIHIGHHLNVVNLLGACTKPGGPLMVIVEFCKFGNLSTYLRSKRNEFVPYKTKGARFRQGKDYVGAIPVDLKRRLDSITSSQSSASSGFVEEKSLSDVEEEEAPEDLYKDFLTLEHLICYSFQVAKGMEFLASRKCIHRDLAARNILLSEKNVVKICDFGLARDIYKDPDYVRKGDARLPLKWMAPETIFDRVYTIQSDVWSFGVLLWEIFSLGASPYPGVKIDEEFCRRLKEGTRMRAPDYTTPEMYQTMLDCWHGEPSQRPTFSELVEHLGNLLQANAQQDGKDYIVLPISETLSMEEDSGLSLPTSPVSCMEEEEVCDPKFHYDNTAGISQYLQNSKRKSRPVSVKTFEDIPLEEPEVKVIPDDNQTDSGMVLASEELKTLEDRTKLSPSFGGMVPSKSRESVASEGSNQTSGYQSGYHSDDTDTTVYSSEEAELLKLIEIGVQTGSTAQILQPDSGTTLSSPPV
T1 sequence (P35968 328-764): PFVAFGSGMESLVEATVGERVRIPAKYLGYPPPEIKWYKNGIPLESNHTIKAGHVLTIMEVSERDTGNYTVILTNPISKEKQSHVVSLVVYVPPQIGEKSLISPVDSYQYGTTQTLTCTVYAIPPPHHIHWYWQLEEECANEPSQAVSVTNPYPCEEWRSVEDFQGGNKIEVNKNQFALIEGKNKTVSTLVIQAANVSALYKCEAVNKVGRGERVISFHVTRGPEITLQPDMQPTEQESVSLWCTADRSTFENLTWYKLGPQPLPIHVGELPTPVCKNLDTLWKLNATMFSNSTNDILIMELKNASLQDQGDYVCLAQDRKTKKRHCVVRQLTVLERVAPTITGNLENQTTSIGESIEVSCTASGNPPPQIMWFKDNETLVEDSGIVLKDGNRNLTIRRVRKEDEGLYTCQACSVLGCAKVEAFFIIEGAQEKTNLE
T2 sequence (P35968 20-764): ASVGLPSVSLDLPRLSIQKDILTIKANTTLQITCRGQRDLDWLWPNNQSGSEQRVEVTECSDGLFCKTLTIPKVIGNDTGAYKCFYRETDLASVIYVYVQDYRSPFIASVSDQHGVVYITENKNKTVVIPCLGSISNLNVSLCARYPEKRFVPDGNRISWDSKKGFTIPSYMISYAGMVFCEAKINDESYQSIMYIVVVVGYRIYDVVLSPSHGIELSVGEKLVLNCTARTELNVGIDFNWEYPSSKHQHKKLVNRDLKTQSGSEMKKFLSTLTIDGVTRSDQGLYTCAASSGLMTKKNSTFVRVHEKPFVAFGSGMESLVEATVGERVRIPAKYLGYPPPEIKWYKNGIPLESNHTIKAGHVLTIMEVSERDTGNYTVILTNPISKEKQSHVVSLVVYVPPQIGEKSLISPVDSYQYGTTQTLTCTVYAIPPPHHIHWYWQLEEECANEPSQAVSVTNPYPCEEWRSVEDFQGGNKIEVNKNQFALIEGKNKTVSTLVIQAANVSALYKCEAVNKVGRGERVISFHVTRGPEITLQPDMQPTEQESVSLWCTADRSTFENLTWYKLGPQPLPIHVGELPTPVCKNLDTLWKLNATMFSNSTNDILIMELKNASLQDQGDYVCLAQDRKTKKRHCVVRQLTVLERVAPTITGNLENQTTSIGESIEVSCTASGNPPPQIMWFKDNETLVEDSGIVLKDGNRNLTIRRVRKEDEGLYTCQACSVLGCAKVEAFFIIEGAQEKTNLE
T4 sequence (A0A2K5VE63 entry or part of it): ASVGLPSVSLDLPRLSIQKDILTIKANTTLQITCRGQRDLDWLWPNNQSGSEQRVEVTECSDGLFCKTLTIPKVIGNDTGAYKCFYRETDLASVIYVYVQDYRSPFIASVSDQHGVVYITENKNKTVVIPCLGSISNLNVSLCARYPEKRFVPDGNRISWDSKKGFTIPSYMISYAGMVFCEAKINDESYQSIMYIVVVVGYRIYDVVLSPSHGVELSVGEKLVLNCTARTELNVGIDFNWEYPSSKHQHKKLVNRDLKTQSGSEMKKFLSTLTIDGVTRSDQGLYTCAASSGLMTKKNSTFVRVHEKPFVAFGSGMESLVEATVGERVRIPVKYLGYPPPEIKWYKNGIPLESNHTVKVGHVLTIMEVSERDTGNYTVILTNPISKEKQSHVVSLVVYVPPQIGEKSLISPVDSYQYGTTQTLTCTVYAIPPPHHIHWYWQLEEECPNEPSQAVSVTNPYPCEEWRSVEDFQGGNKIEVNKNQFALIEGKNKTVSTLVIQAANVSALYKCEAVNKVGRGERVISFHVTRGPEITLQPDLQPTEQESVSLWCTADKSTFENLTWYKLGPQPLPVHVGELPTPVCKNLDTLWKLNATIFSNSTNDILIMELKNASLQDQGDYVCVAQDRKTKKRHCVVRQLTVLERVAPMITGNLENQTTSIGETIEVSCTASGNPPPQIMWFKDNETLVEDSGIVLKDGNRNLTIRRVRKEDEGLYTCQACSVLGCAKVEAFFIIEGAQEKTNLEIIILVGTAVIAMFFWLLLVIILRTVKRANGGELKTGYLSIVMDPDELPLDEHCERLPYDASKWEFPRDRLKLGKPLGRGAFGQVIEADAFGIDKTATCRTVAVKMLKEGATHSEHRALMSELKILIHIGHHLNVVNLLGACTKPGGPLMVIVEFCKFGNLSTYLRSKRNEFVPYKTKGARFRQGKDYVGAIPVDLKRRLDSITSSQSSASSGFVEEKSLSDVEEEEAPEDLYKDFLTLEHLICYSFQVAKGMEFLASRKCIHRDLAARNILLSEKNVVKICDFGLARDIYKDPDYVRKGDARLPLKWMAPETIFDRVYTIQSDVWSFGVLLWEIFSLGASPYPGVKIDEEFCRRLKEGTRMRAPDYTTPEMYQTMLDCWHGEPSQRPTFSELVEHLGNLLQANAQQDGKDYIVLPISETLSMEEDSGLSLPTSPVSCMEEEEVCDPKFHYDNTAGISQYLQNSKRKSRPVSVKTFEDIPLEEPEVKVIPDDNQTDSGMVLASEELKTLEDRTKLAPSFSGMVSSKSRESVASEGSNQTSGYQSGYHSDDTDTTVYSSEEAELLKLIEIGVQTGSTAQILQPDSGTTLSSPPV

Binder | ELISA reading (soluble KDR Ig4-7 domain [1]) | ELISA reading [2] | KDR tyrosine phosphorylation in HUVEC, EC50 (nM), Average (human KDR [3]) [nM] | KDR tyrosine phosphorylation in HUVEC, EC50 (nM), N = 1 (human KDR [3]) [nM] | KDR tyrosine phosphorylation in HUVEC, EC50 (nM), N = 2 (human KDR [3]) [nM] | KDR tyrosine phosphorylation in HUVEC, Maximum Inhibition at 100 nM (% Inhibition), Average (human KDR [3]) [%] | KDR tyrosine phosphorylation in HUVEC, Maximum Inhibition at 100 nM (% Inhibition), N = 1 (human KDR [3]) [%] | KDR tyrosine phosphorylation in HUVEC, Maximum Inhibition at 100 nM (% Inhibition), N = 2 (human KDR [3]) [%] | ELISA reading [6] | Kd (human KDR [7]) [nM] | ELISA reading (soluble KDR Ig4-7 domain [8]) | ELISA reading [9] | 6-keto Prostaglandin F1α release, EC50 (nM), Average (human KDR [10]) [nM] | 6-keto Prostaglandin F1α release, Maximum Inhibition (% Inhibition), Average (human KDR [10]) [%] | 6-keto Prostaglandin F1α release, Maximum Inhibition (% Inhibition), N = 1 (200 nM) (human KDR [10]) [%] | 6-keto Prostaglandin F1α release, Maximum Inhibition (% Inhibition), N = 2 (333 nM) (human KDR [10]) [%] | ELISA reading (soluble KDR Ig4-7 domain [11]) | HUVEC survival, Maximum Inhibition at 50 nM (% Inhibition), Average (human KDR [5]) [%] | HUVEC survival, Maximum Inhibition at 50 nM (% Inhibition), N = 1 (human KDR [5]) [%] | HUVEC survival, Maximum Inhibition at 50 nM (% Inhibition), N = 2 (human KDR [5]) [%] | also measured
27A3 (antibody, V domains shown, Fully human monoclonal antibody from a XenoMouse hybridoma (IgG2 or IgG4 strain), purified) VH: QLQLQESGPGLVKPSETLSLTCTVSGGSISSRSDYWGWIRQPPGKGLEWIGTIYYSGDTYYNPSLKSRVTISVDTSKNQFSLKLSSVTAADTAVYYCARQQLVLYYFDYWGQGTLVTVSS VL: EIVLTQSPGTLSLSPGERATLSCRASQSVSSSYLAWYQQKPGQAPRLLIYATSNRATGIPDRFSGSGSGTDFTLTISRLEPEDFAVYYCQQHGSSPPLTFGGGTKVEIK | 0.075 | 1.97 | 3.1 | 3.4 | 2.9 | 78 | 77 | 79 | 0.093 | 5.4 | 0.08 | 0.111 | 5.6 | 49 | 49 | 49 | 0.078 | 95 | 95 | 94 | % Inhibition (human KDR [4]): 9%; FACS Geometric Mean Fluorescence (cynomolgus KDR): 89.7; 6-keto Prostaglandin F1α release, EC50 (nM), N = 1 (human KDR [10]): 5.5 nM; 6-keto Prostaglandin F1α release, EC50 (nM), N = 2 (human KDR [10]): 5.7 nM; FACS Geometric Mean Fluorescence (bound VEGF165) (human KDR [12]): 118
32G7 (antibody, V domains shown, Fully human monoclonal antibody from a XenoMouse hybridoma (IgG2 or IgG4 strain), purified) VH: EVQLVESGGGLVKPGGSLRLSCAASGFTISSYSMNWVRQAPGKGLEWVSFISSRSNYIYYADSVKGRFTISRDNAKNSLYLQMNSLRAEDTAVYYCSKDDWFEELWGQGTLVTVSS VL: DIQMTQSPSSLSASVGDRVTITCRASQDIRNDLGWYQQKPGKAPKRLIYAASSLQSGVPSRFSGSGSGTEFTLTISSLQPEDFATYYCLQHNSFPWTFGQGTKVEIK | 2.31 | 2.36 | 0.6 | 0.6 | 0.6 | 73 | 69 | 77 | 0.103 | 0.2 | 0.933 | 0.307 | 23.1 | 42 | 28 | 55 | 2.65 | 72 | 73 | 72 | ELISA reading [13]: 2.14; ELISA reading [14]: 0.988; ELISA reading [15]: 2.67; 6-keto Prostaglandin F1α release, EC50 (nM), N = 1 (human KDR [10]): 11.2 nM; 6-keto Prostaglandin F1α release, EC50 (nM), N = 2 (human KDR [10]): 35.1 nM

The next lines start with results.

ELISA reading (soluble KDR Ig4-7 domain [1]) | ELISA reading [2] | KDR tyrosine phosphorylation in HUVEC, EC50 (nM), Average (human KDR [3]) [nM] | KDR tyrosine phosphorylation in HUVEC, EC50 (nM), N = 1 (human KDR [3]) [nM] | KDR tyrosine phosphorylation in HUVEC, EC50 (nM), N = 2 (human KDR [3]) [nM] | KDR tyrosine phosphorylation in HUVEC, Maximum Inhibition at 100 nM (% Inhibition), Average (human KDR [3]) [%] | KDR tyrosine phosphorylation in HUVEC, Maximum Inhibition at 100 nM (% Inhibition), N = 1 (human KDR [3]) [%] | KDR tyrosine phosphorylation in HUVEC, Maximum Inhibition at 100 nM (% Inhibition), N = 2 (human KDR [3]) [%] | ELISA reading [6] | Kd (human KDR [7]) [nM] | ELISA reading (soluble KDR Ig4-7 domain [8]) | ELISA reading [9] | 6-keto Prostaglandin F1α release, EC50 (nM), Average (human KDR [10]) [nM] | 6-keto Prostaglandin F1α release, Maximum Inhibition (% Inhibition), Average (human KDR [10]) [%] | 6-keto Prostaglandin F1α release, Maximum Inhibition (% Inhibition), N = 1 (200 nM) (human KDR [10]) [%] | 6-keto Prostaglandin F1α release, Maximum Inhibition (% Inhibition), N = 2 (333 nM) (human KDR [10]) [%] | ELISA reading (soluble KDR Ig4-7 domain [11]) | Binder | HUVEC survival, Maximum Inhibition at 50 nM (% Inhibition), Average (human KDR [5]) [%] | HUVEC survival, Maximum Inhibition at 50 nM (% Inhibition), N = 1 (human KDR [5]) [%] | HUVEC survival, Maximum Inhibition at 50 nM (% Inhibition), N = 2 (human KDR [5]) [%] | also measured
2.36 | 2.62 | 0.4 | 0.5 | 0.4 | 32 | 33 | 30 | 0.099 | 0.5 | 1.14 | 0.306 |  | 5 | 2 | 8 | 3.02 | 29H3 (antibody, V domains shown, Fully human monoclonal antibody from a XenoMouse hybridoma (IgG2 or IgG4 strain), purified) VH: QVQLVQSGAEVKKPGASVKVSCKASGYTFTSYDINWVRQATGQGLEWMGWMNPNSGKTGYAQKFQGRVTMTRNTSINTAYMELSSLRSEDTAVYYCARGGYSNLGWFDPWGQGTLVTVSS VL: DIQMTQSPSSVSASVGDRVTITCRASQGISSWLVWYHQKPGKAPKLLIYGASSLQSGVPSRFSGSGSGTDFTLTISSLQPEDFATYYCQQANNFPFTFGPGTKVDIK | 11 | 4 | 18 | ELISA reading [13]: 2.35; ELISA reading [14]: 1.14; ELISA reading [15]: 3.04
2.77 | 2.47 | 0.4 | 0.6 | 0.2 | 29 | 36 | 22 | 0.117 | 0.9 | 1.36 | 0.31 |  | 3 | 0 | 6 | 3.04 | 30H10 (antibody, V domains shown, Fully human monoclonal antibody from a XenoMouse hybridoma (IgG2 or IgG4 strain), purified) VH: EVQLLESGGGLVQPGGSLRLSCAASGFTFSNYAMSWVRQAPGKGLEWVSAISGSGGITYYADSVKGRFTISRDNSKNTLFLQMNSLRAEDTAVYYCAKASGDNWGQGTLVSVSS VL: not shown | -5 | -9 | -1 | 
